Data set [1] deals with GST-tagged recombinant human cofilin.
Data set [2] concerns the target T1, Synthetic peptide S3 conjugated to a penetratin peptide.
T1 chain: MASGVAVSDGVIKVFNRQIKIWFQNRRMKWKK

Sequence of GST-tagged recombinant human cofilin (chain, as listed by the source): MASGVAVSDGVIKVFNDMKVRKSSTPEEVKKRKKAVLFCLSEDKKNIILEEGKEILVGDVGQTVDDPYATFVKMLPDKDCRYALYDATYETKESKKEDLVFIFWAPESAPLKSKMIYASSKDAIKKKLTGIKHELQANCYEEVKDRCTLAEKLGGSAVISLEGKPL

B1: purified LIMK1 (protein)
chain: GSSARQKPVLRSCSIDRSPGAGSLGSPASQRKDLGRSESLRVVCRPHRIFRPSDLIHGEVLGKGCFGQAIKVTHRETGEVMVMKELIRFDEETQRTFLKEVKVMRCLEHPNVLKFIGVLYKDKRLNFITEYIKGGTLRGIIKSMDSQYPWSQRVSFAKDIASGMAYLHSMNIIHRDLNSHNCLVRENKNVVVADFGLARLMVDEKTQPEGLRSLKKPDRKKRYTVVGNPYWMAPEMINGRSYDEKVDVFSFGIVLCEIIGRVNADPDYLPRTMDFGLNVRGFLDRYCPPNCPPSFFPITVRCCDLDPEKRPSFVKLEHWLETLRMHLAGHLPLGPQLEQLDRGFWETYRRGESG
In the case of B1, the “cofilin phosphorylation in the in vitro LIMK1 kinase assay (western blot for phospho-cofilin ser3)” value in data set [1] is recorded as “the phosphorylation of cofilin by LIMK1”; in data set [2] it was “S3 inhibited cofilin phosphorylation by LIMK1”.

Source of the values: patent US20100292181.
